The values that follow are results of earlier work, collected in publication PMC11603612.

Among the targets are Glu17 (UniProt position 17, KGKKGEIKNVA); Asp23 (UniProt position 23, IKNVADGYANN); Glu38 (UniProt position 38, QGLAIEATPAN); Glu54 (UniProt position 54, AQKQKEQRQAA); His166 (UniProt position 149, EDVEKHLAKAP); Asp162 (UniProt position 145, RLTREDVEKHL); Asp145 (UniProt position 128, AEHNLDASAIK); Glu141 (UniProt position 124, RRLLAEHNLDA); Glu164 (UniProt position 147, TREDVEKHLAK); His142 (UniProt position 125, RLLAEHNLDAS); Glu161 (UniProt position 144, GRLTREDVEKH); Asp129 (UniProt position 112, EEQNNDALSPA); Asp120 (UniProt position 147, NAPSIDGDRTT); Asp107 (UniProt position 134, DGGTYDIYTTT); Asp5 (UniProt position 32, SAASTDYWQNW); Asp12 (UniProt position 39, WQNWTDGGGIV); Asp122 (UniProt position 149, PSIDGDRTTFT); Glu79 (UniProt position 106, RSPLIEYYVVD); His157 (UniProt position 184, NAWKSHGMNLG); Glu47 (UniProt position 47, FHSLSEKYSNV); Glu98 (UniProt position 98, NKEKLEATINE); Asp60 (UniProt position 60, LEVDVDDCQDV); Glu70 (UniProt position 70, VASECEVKCMP); Asp61 (UniProt position 61, EVDVDDCQDVA); Glu56 (UniProt position 56, NVIFLEVDVDD); Asp58 (UniProt position 58, IFLEVDVDDCQ); Asp64 (UniProt position 64, VDDCQDVASEC); Glu95 (UniProt position 95, SGANKEKLEAT); Glu88 (UniProt position 88, GQKVGEFSGAN); Glu13 (UniProt position 13, KTAFQEALDAA); Glu103 (UniProt position 103, EATINELV---); Asp16 (UniProt position 16, FQEALDAAGDK); Glu68 (UniProt position 68, QDVASECEVKC); Asp20 (UniProt position 20, LDAAGDKLVVV); Asp108 (UniProt position 108, LWQRLDAALGQ); Asp94 (UniProt position 94, GWKTADKKPVK); His62 (UniProt position 62, EALKEHCEVIL); Glu32 (UniProt position 32, RYRGREKTFSA); Glu119 (UniProt position 119, HQIKWEWVKGH); Glu64 (UniProt position 64, LKEHCEVILST); Glu154 (UniProt position 154, TGYQVEV----); Glu61 (UniProt position 61, LEALKEHCEVI); Glu131 (UniProt position 131, GHPENERCDEL); Asp70 (UniProt position 70, VILSTDSQYVR); Asp134 (UniProt position 134, ENERCDELARA); Glu147 (UniProt position 147, MNPTLEDTGYQ); Asp10 (UniProt position 10, VEIFTDGSCLG); His127 (UniProt position 127, KGHAGHPENER); His124 (UniProt position 124, EWVKGHAGHPE); Glu72 (UniProt position 822, QNLKKEKGLF-); Asp44 (UniProt position 794, ENHLSDEDFKA); Glu45 (UniProt position 795, NHLSDEDFKAV); Asp46 (UniProt position 796, HLSDEDFKAVF); Asp121 (UniProt position 147, VPVHFDASV--); Glu2 (UniProt position 28, PSLGKETAAAK); Glu49 (UniProt position 75, NTFVHESLADV); His12 (UniProt position 38, KFERQHMDSST); His48 (UniProt position 74, VNTFVHESLAD); Asp83 (UniProt position 109, TMSITDCRETG); Asp14 (UniProt position 40, ERQHMDSSTSA); Glu111 (UniProt position 137, IIVACEGNPYV); Asp38 (UniProt position 64, RNLTKDRCKPV); His105 (UniProt position 131, TQANKHIIVAC); Asp53 (UniProt position 79, HESLADVQAVC); Glu86 (UniProt position 112, ITDCRETGSSK); Glu9 (UniProt position 35, AAAKFERQHMD); His119 (UniProt position 145, PYVPVHFDASV); Glu52 (UniProt position 134, PKKGVEKYGPE); Glu67 (UniProt position 149, TKKMVENAKKI); Asp21 (UniProt position 103, KAIDGDTVKLM); His121 (UniProt position 203, KPNNTHEQHLR); Glu73 (UniProt position 155, NAKKIEVEFDK); Glu122 (UniProt position 204, PNNTHEQHLRK); Asp40 (UniProt position 122, RLLLVDTPETK); Glu43 (UniProt position 125, LVDTPETKHPK); Glu75 (UniProt position 157, KKIEVEFDKGQ); Glu10 (UniProt position 92, KKLHKEPATLI); Asp19 (UniProt position 101, LIKAIDGDTVK); His8 (UniProt position 90, STKKLHKEPAT); Glu101 (UniProt position 183, GKMVNEALVRQ); Asp95 (UniProt position 177, AYIYADGKMVN).

For series [1], the target named is Asp8 (UniProt position 8, VIFLKDVKGKG).
Series [2] has as its target Glu48 (UniProt position 48, NLKALEAQKQK).
The subject of series [3] is Asp8.
In series [4] the target is Glu6 (UniProt position 6, MVKQIESKTAF).
The target in series [5] is Glu57 (UniProt position 57, AIVALEALKEH).
For series [6], the target named is Glu129 (UniProt position 129, HAGHPENERCD).
The target of series [7] is Glu48 (UniProt position 48, TNNRMELMAAI).
The target of series [8] is Glu135 (UniProt position 135, NERCDELARAA).
For series [9], the target named is Glu6 (UniProt position 6, MLKQVEIFTDG).
Series [10] deals with Glu57 (UniProt position 139, EKYGPEASAFT).
In series [11] the target is Glu129 (UniProt position 211, HLRKSEAQAKK).
Series [12] concerns the target Glu135 (UniProt position 217, AQAKKEKLNIW).

As to “N-terminal domain of ribosomal protein L9 (NTL / NTL9) (Geobacillus stearothermophilus (inferred))”, the pKa (as a rule, the negative logarithm of the acid dissociation constant) is on record as 3.6 in the series with Glu17; 3 in the series with Asp8 [1]; 4.2 with Glu48 [2]; 3.1 with Asp23; 4 in the series with Glu38; 4.2 with Glu54.
“BBL (peripheral subunit-binding domain of 2-oxoglutarate dehydrogenase E2) (Escherichia coli (inferred))”: the pKa in the series with His166 is listed as 5.4; with Asp162 it was 3.2; with Asp145, 3.7; with Glu141 it was 4.5; in the series with Glu164, 4.5; with His142 it was 6.5. The pKa with Glu161 is recorded as 3.7; with Asp129, 3.9.
Turning to “Xylanase (family 11 endo-1,4-beta-xylanase) (Bacillus circulans (inferred))”, the pKa with Asp120 is 3.2; with Asp107, 2.7; with Asp5 it was 3; in the series with Asp12 it was 2.5; with Asp122, 3.6; with Glu79, 4.6. In addition, the pKa in the series with His157 is given as 6.5.
In the case of “Turkey ovomucoid third domain (OMTKY3) (Meleagris gallopavo (inferred))”, the pKa is given as 7.5 in the series on His53; 4.8 in the series with Glu44; 4.1 in the series with Glu11; 2.3 in the series on Asp27; 2.7 in the series with Asp8 [3]; 3.2 with Glu20.
For “Thioredoxin (residue set of human thioredoxin) (Homo sapiens (inferred from residue set; not stated))”, the pKa is 4.1 in the series with Glu47; 4.8 with Glu6 [4]; 3.9 in the series with Glu98; 2.8 with Asp60; 4.6 with Glu70; 4.2 with Asp61. Further, the pKa with Glu56 is given as 5.1; with Asp58, 5.3; with Asp64 it was 3.2; with Glu95, 4.1; in the series with Glu88, 3.7; with Glu13 it was 4.4. The pKa with Glu103 is reported as 4.4; in the series with Asp16, 4; with Glu68, 4.9; with Asp20, 3.8.
On to “Ribonuclease HI (RNaseH) (Escherichia coli)”, for which the pKa with Asp108 is 3.2; with Asp94 it was 3.2; in the series with Glu57 [5] it was 3.2; with His62, 7; with Glu129 [6] it was 3.6; with Glu32, 3.6. Besides, the pKa with Glu119 is recorded as 4.1; with Glu64, 4.4; in the series with Glu154, 4.4; with Glu48 [7], 4.4; in the series with Glu135 [8] it was 4.3; with Glu61, 3.9. Besides, the pKa is listed as 4.3 in the series with Glu131; 2.6 with Asp70; 4.1 with Asp134; 4.5 with Glu6 [9]; 4.2 in the series with Glu147; 6.1 with Asp10. In addition, the pKa in the series with His127 is listed as 7.9; with His124, 7.1.
For the substance “Villin headpiece subdomain HP36 (Gallus gallus (inferred))”, the pKa with Glu72 is 4.4; in the series with Asp44, 3.1; with Glu45 it was 4; in the series with Asp46, 3.5.
As to “Ribonuclease A (RNaseA) (Bos taurus (inferred))”, the pKa with Asp121 is given as 3.1; with Glu2, 2.8; with Glu49, 4.7; with His12, 6.2; with His48 it was 6; with Asp83, 3.5. Also, the pKa in the series with Asp14 is reported as 2; with Glu111, 3.6; in the series with Asp38 it was 3.5; with His105, 6.7; with Asp53, 3.9; with Glu86, 4.1. Besides, the pKa with Glu9 is reported as 4; in the series with His119, 6.1.
“Staphylococcal nuclease (SNase) (Staphylococcus aureus (inferred))”: the pKa is reported as 3.9 with Glu52; 3.8 in the series with Glu67; 6.5 in the series with Asp21; 5.2 in the series with His121; 3.3 with Glu73; 3.9 in the series with Glu122. Moreover, the pKa is on record as 3.9 in the series with Asp40; 4.3 with Glu43; 3.5 with Glu57 [10]; 3.3 in the series with Glu75; 2.8 with Glu10; 2.2 in the series with Asp19. The pKa in the series with His8 was 6.5; with Glu129 [11], 3.8; with Glu101, 3.8; with Asp95, 2.2; with Glu135 [12], 3.8.
